T1: GST-fused integrin β1 cytoplasmic tail (Homo sapiens (Human), UniProt P05556)
T1 chain: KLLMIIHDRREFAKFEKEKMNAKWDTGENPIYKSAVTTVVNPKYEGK

T2: GST-fused kindlin-1 (Homo sapiens (Human), UniProt Q9BQL6)
T2 chain: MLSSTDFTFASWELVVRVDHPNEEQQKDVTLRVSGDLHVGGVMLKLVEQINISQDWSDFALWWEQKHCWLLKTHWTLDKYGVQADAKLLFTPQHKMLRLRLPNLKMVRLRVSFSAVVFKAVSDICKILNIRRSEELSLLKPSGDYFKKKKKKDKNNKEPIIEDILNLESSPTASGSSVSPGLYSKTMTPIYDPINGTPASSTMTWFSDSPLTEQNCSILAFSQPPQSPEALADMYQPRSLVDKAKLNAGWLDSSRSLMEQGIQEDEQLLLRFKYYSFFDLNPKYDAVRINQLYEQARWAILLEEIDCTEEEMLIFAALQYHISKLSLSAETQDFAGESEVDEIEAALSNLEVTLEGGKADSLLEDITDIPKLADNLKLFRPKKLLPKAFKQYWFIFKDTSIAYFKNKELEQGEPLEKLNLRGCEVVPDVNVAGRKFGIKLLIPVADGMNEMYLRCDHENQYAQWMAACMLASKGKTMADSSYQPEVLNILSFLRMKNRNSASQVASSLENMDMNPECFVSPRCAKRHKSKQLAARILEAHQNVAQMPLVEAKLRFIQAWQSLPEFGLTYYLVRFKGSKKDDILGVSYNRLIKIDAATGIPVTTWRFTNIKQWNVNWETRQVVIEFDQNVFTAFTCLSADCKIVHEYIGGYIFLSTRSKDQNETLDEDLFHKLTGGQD

T3: N-terminus of sharpin (SH-N, 1-217 amino acids), his-tagged (UniProt Q9H0F6 1-217)
T3 construct: also called His-SH-N; N-terminal fragment of sharpin; source: E. coli Rosetta DE3, purified (Ni-NTA agarose)
T3 sequence (looked up): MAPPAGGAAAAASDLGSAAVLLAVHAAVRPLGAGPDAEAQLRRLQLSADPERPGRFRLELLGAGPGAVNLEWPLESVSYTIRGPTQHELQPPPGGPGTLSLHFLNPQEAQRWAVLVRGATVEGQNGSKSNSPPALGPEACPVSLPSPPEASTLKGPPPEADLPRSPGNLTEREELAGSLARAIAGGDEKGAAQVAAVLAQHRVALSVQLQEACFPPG

B1: C-terminus of sharpin (SH-C, 217-387 amino acids), his-tagged (protein)
chain: GPIRLQVTLEDAASAASAASSAHVALQVHPHCTVAALQEQVFSELGFPPAVQRWVIGRCLCVPERSLASYGVRQDGDPAFLYLLSAPREAPATGPSPQHPQKMDGELGRLFPPSLGLPPGPQPAASSLPSPLQPSWSCPSCTFINAPDRPGCEMCSTQRPCTWDPLAAAST
B2: his-tagged kindlin-1 (protein)
chain: MLSSTDFTFASWELVVRVDHPNEEQQKDVTLRVSGDLHVGGVMLKLVEQINISQDWSDFALWWEQKHCWLLKTHWTLDKYGVQADAKLLFTPQHKMLRLRLPNLKMVRLRVSFSAVVFKAVSDICKILNIRRSEELSLLKPSGDYFKKKKKKDKNNKEPIIEDILNLESSPTASGSSVSPGLYSKTMTPIYDPINGTPASSTMTWFSDSPLTEQNCSILAFSQPPQSPEALADMYQPRSLVDKAKLNAGWLDSSRSLMEQGIQEDEQLLLRFKYYSFFDLNPKYDAVRINQLYEQARWAILLEEIDCTEEEMLIFAALQYHISKLSLSAETQDFAGESEVDEIEAALSNLEVTLEGGKADSLLEDITDIPKLADNLKLFRPKKLLPKAFKQYWFIFKDTSIAYFKNKELEQGEPLEKLNLRGCEVVPDVNVAGRKFGIKLLIPVADGMNEMYLRCDHENQYAQWMAACMLASKGKTMADSSYQPEVLNILSFLRMKNRNSASQVASSLENMDMNPECFVSPRCAKRHKSKQLAARILEAHQNVAQMPLVEAKLRFIQAWQSLPEFGLTYYLVRFKGSKKDDILGVSYNRLIKIDAATGIPVTTWRFTNIKQWNVNWETRQVVIEFDQNVFTAFTCLSADCKIVHEYIGGYIFLSTRSKDQNETLDEDLFHKLTGGQD
B3: integrin β1 CT protein (NMR and SPR samples) (domain or fragment, UniProt P05556 752-798, looked up)
chain: KLLMIIHDRREFAKFEKEKMNAKWDTGENPIYKSAVTTVVNPKYEGK
notes: Integrin β1 cytoplasmic tail (CT); 15N-labelled in the HSQC experiment, unlabelled analyte in SPR; The only vector named for the tails is pGST-1; also called ^15N-labeled β1 CT; the integrin β1 CT protein

Tests used:
[1] = biological target: T1, GST-fused integrin β1 cytoplasmic tail; assay: GST pull-down
GST-fused kindlin-1 = biological target: T2, GST-fused kindlin-1; assay: GST pull-down
[2] = biological target: T3, N-terminus of sharpin (SH-N, 1-217 …); assay: SPR; Biacore 8K; N-terminal fragment of sharpin coupled to a CM5 chip; integrin β1 CT or β3 CT injected at 2.5, 5, 10, 20 and 40 μM; room temperature, PBS; conditions: both partners purified

Binder	binding result [1]	binding result (GST-fused kindlin-1)	Kd [2]
B1	no binding	binds	–
B2	binds	–	–
B3	–	–	40 µM
